Results on one molecule are retold here after article PMC10302166, “Molecular basis and dual ligand regulation of tetrameric estrogen receptor α/14-3-3ζ protein complex” (The Journal of Biological Chemistry, 2023).

For assay [1], the target named is T1, ERα-Y537S/14-3-3ζ protein complex (human (from the printed UniProt entry) …, UniProt P03372 302-595; P63104 1-245, Y537S | F591R | P592R, phosphothreonine at T594). The experiment in a line: FP; DMSO.
In assay [2] the target is ERα-pT594-strep (ERαLBD-F-strep phosphorylated in vitro by PKA) (human (from the printed UniProt entry), UniProt P03372 302-595, S305A | F591R | P592R, phosphothreonine at T594). The experiment in a line: FP; 100 uM E2.
In assay [3] the target is T1, ERα-Y537S/14-3-3ζ protein complex. The assay is described as follows: FP; 100 uM E2.
Assay [4] concerns the target T2, ERαLBD-F-strep (PKA-responsive, non-phosphorylated) (human (from the printed UniProt entry), UniProt P03372 302-595, S305A | F591R | P592R).
T2 construct: also called ERα-strep; ERα(PKA)-strep; source: E. coli NiCo21 (DE3), purified (Ni-NTA, SUMO cleavage, Strep-Tactin, SEC); not shown: His tag, N-terminal, cleaved; SUMO, N-terminal, cleaved; strep-tag, C-terminal, kept
T2 sequence (looked up): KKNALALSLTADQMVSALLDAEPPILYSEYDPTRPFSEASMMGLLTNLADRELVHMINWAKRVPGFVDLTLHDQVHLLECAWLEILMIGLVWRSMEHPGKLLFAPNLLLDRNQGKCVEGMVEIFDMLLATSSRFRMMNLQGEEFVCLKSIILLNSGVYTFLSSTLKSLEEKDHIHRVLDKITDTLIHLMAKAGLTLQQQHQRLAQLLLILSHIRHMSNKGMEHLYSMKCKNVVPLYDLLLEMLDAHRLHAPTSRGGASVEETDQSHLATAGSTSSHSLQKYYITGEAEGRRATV
The experiment in a line: fluorescence polarisation; as a10 but in the presence of 100 μM E2; apparent KD. Particulars: both partners purified. (Fluorescence polarisation rises when a labelled molecule tumbles more slowly, as on binding a larger partner.)

Assay [5] deals with T3, ERα-pT594-strep (ERαLBD-F-strep phosphorylated in vitro by PKA) (human (from the printed UniProt entry), UniProt P03372 302-595, S305A | F591R | P592R, phosphothreonine at T594).
T3 construct: also called ERα(PKA)-pT594-strep; phosphorylated ERα; source: E. coli NiCo21 (DE3), phosphorylated in vitro with His-PKA-strep and ATP, purified (Ni-NTA, Strep-Tactin, SEC); not shown: His tag, N-terminal, cleaved; SUMO, N-terminal, cleaved; strep-tag, C-terminal, kept
T3 sequence (looked up): T2 sequence (looked up)
The assay is described as above. Particulars: both partners purified.

Assay [6] addresses T4, ERα-Y537S LBD-F-strep (PKA-responsive), without 14-3-3ζ (human (from the printed UniProt entry), UniProt P03372 302-595, S305A | Y537S | F591R | P592R).
T4 construct: the methods list ERα(PKA)-strep and ERα(PKA)-pT594-strep 'for WT ERα and Y537S mutant'; also called apo ERα-Y537S
T4 sequence (looked up): T2 sequence (looked up) with Y236S
The description is as above. The following applies: both partners purified.

Assay [7] addresses T2, ERαLBD-F-strep (PKA-responsive, …). The experiment in a line: fluorescence polarisation; fluorescence anisotropy; ERα or complex titrated (2-fold series from 40 μM ERα) to 20 nM fluorescein-labeled SRC1 peptide; DMSO control; 20 mM HEPES pH 7.5, 150 mM NaCl, 10 mM MgCl2, 0.1% Tween20, 0.1% BSA; room temperature; apparent KD (4PL fit). The following applies: both partners purified.

Assay [8] addresses T3, ERα-pT594-strep (ERαLBD-F-strep …). Described as above. The following applies: both partners purified.
For assay [9], the target named is T4, ERα-Y537S LBD-F-strep (PKA-responsive), …. Described as above. The following applies: both partners purified.

Numbering of substitutions follows the chain as printed. Where no end group is shown, it is not given here.

T1 sequence (P63104 whole entry, stated change not applied, one chain of several): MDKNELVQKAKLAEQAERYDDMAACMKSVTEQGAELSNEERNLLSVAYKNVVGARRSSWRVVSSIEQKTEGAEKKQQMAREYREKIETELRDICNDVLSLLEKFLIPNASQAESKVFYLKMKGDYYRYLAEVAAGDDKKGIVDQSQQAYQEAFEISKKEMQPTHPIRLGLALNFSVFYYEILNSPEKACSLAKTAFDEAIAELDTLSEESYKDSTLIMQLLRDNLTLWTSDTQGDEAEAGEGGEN

B1: fluorescein-labeled SRC-1 cofactor peptide (LXXLL motif of SRC-1/NCoA-1) (peptide)
chain: LTERHKILHRLLQEGSPSD
modifications: also: fluorescein (FITC) label, position not given here
B1: the Kd came out at 700 nM in assay [1]; 900 nM in [2]; 400 nM in assay [3]; 1000 nM in assay [4]; 1000 nM in assay [5]; 800 nM in assay [6]. In addition, the results for the Kd in assay [7], in assay [8] and in assay [9] were about 20 µM, about 20 µM and 1700 nM, respectively.
